Data: patent US20060257938A1, “Method of screening for drugs that block ligand binding to a lipid binding protein” (priority 2005, published 2006)
Changes are numbered by the printed parent chain.

B1: 18G 31W 73V 72A (protein, listed as Rattus norvegicus)
chain: AFDGTWKVDRNENYEKFGEKMGINVVKRKLWAHDNLKLTITQEGNKFTVKESSNFRNIDVVFELGVDFAYSAVDGTELTGTWTMEGNKLVGKFKRVDNGKELIAVREISGNELIQTYTYEGVEAKRIFKKE
modifications: PEPTIDE (1)...(131) wild-type rat intestinal fatty acid binding protein
B2: 62N 106F 117A 72A (protein, listed as Rattus norvegicus)
chain: B1 chain with G18M, W31G, F62N, V73A, R106F, Y117A
modifications: PEPTIDE (1)...(131) wild-type rat intestinal fatty acid binding protein
B3: 38Q 106W 117A 72A (protein, listed as Rattus norvegicus)
chain: B1 chain with G18M, W31G, L38Q, V73A, R106W, Y117A
modifications: PEPTIDE (1)...(131) wild-type rat intestinal fatty acid binding protein
B4: 14L 18I 31L 73F 117A 72A (protein, listed as Rattus norvegicus)
chain: B1 chain with Y14L, G18I, W31L, V73F, Y117A
modifications: PEPTIDE (1)...(131) wild-type rat intestinal fatty acid binding protein
B5: 72G 74F (protein, listed as Rattus norvegicus)
chain: B1 chain with G18M, W31G, A72G, V73A, D74F
modifications: PEPTIDE (1)...(131) wild-type rat intestinal fatty acid binding protein
B6: 18I 31L 73L 72A (protein, listed as Rattus norvegicus)
chain: B1 chain with G18I, W31L, V73L
modifications: PEPTIDE (1)...(131) wild-type rat intestinal fatty acid binding protein
B7: 14L 18T 31E 73G 117G 72A (protein, listed as Rattus norvegicus)
chain: B1 chain with Y14L, G18T, W31E, V73G, Y117G
modifications: PEPTIDE (1)...(131) wild-type rat intestinal fatty acid binding protein
B8: 18L 55L 73I 72A (protein, listed as Rattus norvegicus)
chain: B1 chain with G18L, W31G, F55L, V73I
modifications: PEPTIDE (1)...(131) wild-type rat intestinal fatty acid binding protein
B9: 14V 18L 73V 117A 72A (protein, listed as Rattus norvegicus)
chain: B1 chain with Y14V, G18L, W31G, Y117A
modifications: PEPTIDE (1)...(131) wild-type rat intestinal fatty acid binding protein
B10: 21W 78I 72A (protein, listed as Rattus norvegicus)
chain: B1 chain with G18M, M21W, W31G, V73A, L78I
modifications: PEPTIDE (1)...(131) wild-type rat intestinal fatty acid binding protein
B11: 72T 73Q 74S (protein, listed as Rattus norvegicus)
chain: B1 chain with G18M, W31G, A72T, V73Q, D74S
modifications: PEPTIDE (1)...(131) wild-type rat intestinal fatty acid binding protein
B12: 18L 73L 72A (protein, listed as Rattus norvegicus)
chain: B1 chain with G18L, W31G, V73L
modifications: PEPTIDE (1)...(131) wild-type rat intestinal fatty acid binding protein
B13: 14L 18S 31L 73V 117A 72A (protein, listed as Rattus norvegicus)
chain: B1 chain with Y14L, G18S, W31L, Y117A
modifications: PEPTIDE (1)...(131) wild-type rat intestinal fatty acid binding protein
B14: 73I 72A (protein, listed as Rattus norvegicus)
chain: B1 chain with G18M, W31G, V73I
modifications: PEPTIDE (1)...(131) wild-type rat intestinal fatty acid binding protein
B15: 21W 78A 102V 72A (protein, listed as Rattus norvegicus)
chain: B1 chain with G18M, M21W, W31G, V73A, L78A, L102V
modifications: PEPTIDE (1)...(131) wild-type rat intestinal fatty acid binding protein
B16: 73N 72A 74F (protein, listed as Rattus norvegicus)
chain: B1 chain with G18M, W31G, V73N, D74F
modifications: PEPTIDE (1)...(131) wild-type rat intestinal fatty acid binding protein
B17: 21W 78F 72A (protein, listed as Rattus norvegicus)
chain: B1 chain with G18M, M21W, W31G, V73A, L78F
modifications: PEPTIDE (1)...(131) wild-type rat intestinal fatty acid binding protein
B18: 14L 18L 73L 117A 72A (protein, listed as Rattus norvegicus)
chain: B1 chain with Y14L, G18L, W31G, V73L, Y117A
modifications: PEPTIDE (1)...(131) wild-type rat intestinal fatty acid binding protein
B19: 72H 73Y 74G (protein, listed as Rattus norvegicus)
chain: B1 chain with G18M, W31G, A72H, V73Y, D74G
modifications: PEPTIDE (1)...(131) wild-type rat intestinal fatty acid binding protein

Test: Probe fluorescence ratio response to arachidonic acid relative to ADIFAB2
Type: binding
Settings: arachidonic acid; response relative to ADIFAB2
Outline: (§1)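 Fluorescently labeled rat intestinal FABP variants were read at two emission wavelengths, near the unbound maximum (about 420 to 480 nm) and the FFA-bound maximum (about 495 to 580 nm). R = Fλ1/Fλ2 after subtracting probe-free intensity; ΔR = R+agent − R0, normalized to ADIFAB2 (rI-FABP-L72A).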

Molecule	DR/DR AA
B1	0.774
B2	1.265
B3	1.078
B4	1.297
B5	1.669
B6	0.626
B7	1.236
B8	0.443
B9	0.926
B10	6.322
B11	2.166
B12	0.441
B13	0.951
B14	0.408
B15	4.923
B16	0.870
B17	4.264
B18	0.905
B19	0.600

Test: Probe fluorescence ratio response to linolenic acid relative to ADIFAB2
Type: binding
Settings: response relative to ADIFAB2
Outline: as §1

Molecule	DR/DR LNA
B1	0.705
B2	0.756
B3	0.795
B4	0.639
B5	1.970
B6	0.857
B7	1.133
B8	−0.044
B9	0.624
B10	4.024
B11	2.419
B12	0.090
B13	0.673
B14	0.099
B15	1.628
B16	1.299
B17	1.694
B18	0.641
B19	0.591

Test: Probe fluorescence ratio response to linoleic acid relative to ADIFAB2
Type: binding
Settings: response relative to ADIFAB2
Outline: as §1

Molecule	DR/DR LA
B1	0.855
B2	0.985
B3	0.860
B4	0.707
B5	2.116
B6	0.682
B7	1.107
B8	−0.129
B9	0.557
B10	4.381
B11	2.713
B12	0.019
B13	0.534
B14	0.039
B15	2.749
B16	0.976
B17	1.597
B18	0.657
B19	0.472

Test: Probe fluorescence ratio response to oleic acid relative to ADIFAB2
Type: binding
Settings: response relative to ADIFAB2
Outline: as §1

Molecule	DR/DR OA
B1	0.942
B2	0.864
B3	0.899
B4	0.300
B5	1.490
B6	0.549
B7	1.096
B8	0.021
B9	0.307
B10	4.703
B11	2.676
B12	0.021
B13	0.020
B14	0.045
B15	3.261
B16	0.775
B17	1.843
B18	0.355
B19	0.140

Test: Probe fluorescence ratio response to palmitic acid relative to ADIFAB2
Type: binding
Settings: response relative to ADIFAB2
Outline: as §1

Molecule	DR/DR PA
B1	0.463
B2	0.430
B3	0.444
B4	0.121
B5	2.304
B6	1.075
B7	0.712
B8	0.007
B9	0.249
B10	2.759
B11	2.646
B12	−0.004
B13	0.028
B14	0.015
B15	1.721
B16	1.468
B17	0.851
B18	0.071
B19	0.486

Test: Probe fluorescence ratio response to palmitoleic acid relative to ADIFAB2
Type: binding
Settings: response relative to ADIFAB2
Outline: as §1

Molecule	DR/DR POA
B1	0.770
B2	0.341
B3	0.970
B4	0.235
B5	2.996
B6	0.781
B7	1.072
B8	−0.030
B9	0.597
B10	3.284
B11	3.110
B12	0.092
B13	−0.003
B14	0.117
B15	1.585
B16	2.256
B17	1.217
B18	0.410
B19	0.986

Test: Probe fluorescence ratio response to stearic acid relative to ADIFAB2
Type: binding
Settings: response relative to ADIFAB2
Outline: as §1

Molecule	DR/DR SA
B1	0.489
B2	0.490
B3	0.281
B4	0.077
B5	0.669
B6	0.390
B7	0.413
B8	0.423
B9	0.105
B10	3.396
B11	1.792
B12	0.254
B13	0.007
B14	0.242
B15	3.092
B16	0.271
B17	1.161
B18	0.031
B19	0.052
